Source: article doi:10.1101/2024.05.17.594765

T1: C-terminally Halo-tagged full-length zyxin (zyxin-Halo), Q15942
T1 chain: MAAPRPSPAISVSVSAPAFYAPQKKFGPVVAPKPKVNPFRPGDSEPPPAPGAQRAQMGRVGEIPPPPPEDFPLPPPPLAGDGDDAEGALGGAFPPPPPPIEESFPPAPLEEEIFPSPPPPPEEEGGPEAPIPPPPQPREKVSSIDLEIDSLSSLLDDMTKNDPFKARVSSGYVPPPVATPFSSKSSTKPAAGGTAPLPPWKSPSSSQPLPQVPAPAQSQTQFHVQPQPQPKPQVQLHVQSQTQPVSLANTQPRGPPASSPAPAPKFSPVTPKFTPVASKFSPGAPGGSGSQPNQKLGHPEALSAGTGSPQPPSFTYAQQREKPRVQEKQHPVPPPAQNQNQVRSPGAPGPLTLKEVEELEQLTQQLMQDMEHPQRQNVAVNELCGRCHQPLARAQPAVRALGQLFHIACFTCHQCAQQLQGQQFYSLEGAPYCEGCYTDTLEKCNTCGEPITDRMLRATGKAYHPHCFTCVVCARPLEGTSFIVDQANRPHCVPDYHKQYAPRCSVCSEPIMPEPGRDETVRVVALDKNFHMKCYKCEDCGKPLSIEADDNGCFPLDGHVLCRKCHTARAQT

T2: zyxin mutant deficient in recruiting VASP, F(75, 97, 108, 118)A, Halo-tagged, Q15942
T2 chain: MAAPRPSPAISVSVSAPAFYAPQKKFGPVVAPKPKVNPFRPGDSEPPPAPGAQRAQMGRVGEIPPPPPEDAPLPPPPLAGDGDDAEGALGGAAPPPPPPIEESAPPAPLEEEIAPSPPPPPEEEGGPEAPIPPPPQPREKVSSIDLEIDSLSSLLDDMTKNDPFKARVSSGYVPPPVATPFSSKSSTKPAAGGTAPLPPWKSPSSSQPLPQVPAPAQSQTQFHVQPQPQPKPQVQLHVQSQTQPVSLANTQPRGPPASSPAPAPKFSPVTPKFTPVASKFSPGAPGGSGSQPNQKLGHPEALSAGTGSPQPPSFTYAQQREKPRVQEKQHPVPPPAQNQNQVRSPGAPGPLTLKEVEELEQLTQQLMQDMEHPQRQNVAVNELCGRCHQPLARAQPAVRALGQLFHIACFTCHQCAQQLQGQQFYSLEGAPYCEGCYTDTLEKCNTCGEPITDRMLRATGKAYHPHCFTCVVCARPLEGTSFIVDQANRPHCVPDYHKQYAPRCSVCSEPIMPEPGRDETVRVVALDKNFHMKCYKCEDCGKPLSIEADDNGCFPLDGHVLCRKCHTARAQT


Columns and labels:
[1] = target: T1, C-terminally Halo-tagged full-length …; assay: force reconstitution TIRF assay; details: chain shown with the change; images were acquired every 1 s; parent: est. 490; read off a plot
[2] = target: T2, zyxin mutant deficient in recruiting …; assay: force reconstitution TIRF assay; details: chain shown with the change; images were acquired every 1 s; parent: est. 490; read off a plot

Row | other: Number of Binding Events (mean) [1] | other: Number of Binding Events (mean) [2] | Binder
1 | 180 | – | C-terminally Halo-tagged VASP (VASP-Halo), P50552 L226A; I231A; L235A; R273E; R274E; R275E; K276E (protein) SETVICSSRATVMLYDDGNKRWLPAGTGPQAFSRVQIYHNPTANSFRVVGRKMQPDQQVVINCAIVRGVKYNQATPNFHQWRDARQVWGLNFGSKEDAAQFAAGMASALEALEGGGPPPPPALPTWSVPNGPSPEEVEQQKRQQPGPSEHIERRVSNAGGPPAPPAGGPPPPPGPPPPPGPPPPPGLPPSGVPAAAHGAGGGPPPAPPLPAAQGPGGGGAGAPGAAAAAAGAKARKVSKQEEASGGPTAPKAESGRSGGGGLMEEMNAMLAEEEEATQVGEKTPKDESANQEEPEARVPAQSESVRRPWEKNSTTLPRMKSSSSVTTSETQPCTPSSSDYSDLQRVKQELLEEVKKELQKVKEEIIEAFVQELRKRGSP
2 | – | 30 | m6; m1 VASP:L226A; VASP:I231A; VASP:L235A; VASP:R273E; VASP:R274E; VASP:R275E; VASP:K276E; zyxin:F75A; zyxin:F97A; zyxin:F108A; zyxin:F118A (protein) SETVICSSRATVMLYDDGNKRWLPAGTGPQAFSRVQIYHNPTANSFRVVGRKMQPDQQVVINCAIVRGVKYNQATPNFHQWRDARQVWGLNFGSKEDAAQFAAGMASALEALEGGGPPPPPALPTWSVPNGPSPEEVEQQKRQQPGPSEHIERRVSNAGGPPAPPAGGPPPPPGPPPPPGPPPPPGLPPSGVPAAAHGAGGGPPPAPPLPAAQGPGGGGAGAPGAAAAAAGAKARKVSKQEEASGGPTAPKAESGRSGGGGLMEEMNAMLAEEEEATQVGEKTPKDESANQEEPEARVPAQSESVRRPWEKNSTTLPRMKSSSSVTTSETQPCTPSSSDYSDLQRVKQELLEEVKKELQKVKEEIIEAFVQELRKRGSP
